Results published in paper PMC9430671.

Tests used:
[1] = target: LysP7951 full-length product (FLP), produced from the wild-type lysP7951 gene (Streptococcus thermophilus phage P7951); test: native MS; purified LysP7951 complex (co-produced, co-purified) in 150 mM ammonium acetate, about 10 μM, nano-ESI Q-TOF, positive mode, collision energy 0 V (15 and 100 V for dissociation)
[2] = target: LysP7951 full-length product (FLP), produced from the wild-type lysP7951 gene (Streptococcus thermophilus phage P7951); test: SEC; analytical gel filtration (Superose 6 10/300 GL, calibrated) of single purified preparations; protein buffer (50 mM HEPES, 500 mM NaCl, 1% glycerol, pH 7), 0.4 mL/min; apparent molecular masses from elution volumes
[3] = target: LysP7951_(209-310) (Streptococcus thermophilus phage P7951); test: SAXS; LysP7951 CTP at 1.00, 1.85, 2.70 mg/mL in protein buffer, 20°C, BM29 beamline ESRF; molecular mass estimated from the scattering data
[4] = target: LysP7951_(209-310) (Streptococcus thermophilus phage P7951); test: SEC; analytical gel filtration (Superose 6 10/300 GL, calibrated) of single purified preparations; protein buffer (50 mM HEPES, 500 mM NaCl, 1% glycerol, pH 7), 0.4 mL/min; apparent molecular masses from elution volumes

stoichiometry N (CTP subunits per FLP) [1] | stoichiometry N (CTP subunits per FLP) [2] | stoichiometry N [3] | stoichiometry N [4] | Substance
5 | 4 |  |  | LysP7951 C-terminal product (CTP), produced from the internal translation start site of the wild-type lysP7951 gene (domain or fragment)
 |  | 6 to 7 subunits | 7 subunits | LysP7951_(209-310) (domain or fragment)
